Measurements taken from patent US20250145690A1 (US Dept. of Health and Human Services, published 2025).

T1: HCoV-NL63 spike protein (Sino Biological 40604-V08B) (HCoV-NL63, UniProt Q6Q1S2 19-1296)
T1 sequence: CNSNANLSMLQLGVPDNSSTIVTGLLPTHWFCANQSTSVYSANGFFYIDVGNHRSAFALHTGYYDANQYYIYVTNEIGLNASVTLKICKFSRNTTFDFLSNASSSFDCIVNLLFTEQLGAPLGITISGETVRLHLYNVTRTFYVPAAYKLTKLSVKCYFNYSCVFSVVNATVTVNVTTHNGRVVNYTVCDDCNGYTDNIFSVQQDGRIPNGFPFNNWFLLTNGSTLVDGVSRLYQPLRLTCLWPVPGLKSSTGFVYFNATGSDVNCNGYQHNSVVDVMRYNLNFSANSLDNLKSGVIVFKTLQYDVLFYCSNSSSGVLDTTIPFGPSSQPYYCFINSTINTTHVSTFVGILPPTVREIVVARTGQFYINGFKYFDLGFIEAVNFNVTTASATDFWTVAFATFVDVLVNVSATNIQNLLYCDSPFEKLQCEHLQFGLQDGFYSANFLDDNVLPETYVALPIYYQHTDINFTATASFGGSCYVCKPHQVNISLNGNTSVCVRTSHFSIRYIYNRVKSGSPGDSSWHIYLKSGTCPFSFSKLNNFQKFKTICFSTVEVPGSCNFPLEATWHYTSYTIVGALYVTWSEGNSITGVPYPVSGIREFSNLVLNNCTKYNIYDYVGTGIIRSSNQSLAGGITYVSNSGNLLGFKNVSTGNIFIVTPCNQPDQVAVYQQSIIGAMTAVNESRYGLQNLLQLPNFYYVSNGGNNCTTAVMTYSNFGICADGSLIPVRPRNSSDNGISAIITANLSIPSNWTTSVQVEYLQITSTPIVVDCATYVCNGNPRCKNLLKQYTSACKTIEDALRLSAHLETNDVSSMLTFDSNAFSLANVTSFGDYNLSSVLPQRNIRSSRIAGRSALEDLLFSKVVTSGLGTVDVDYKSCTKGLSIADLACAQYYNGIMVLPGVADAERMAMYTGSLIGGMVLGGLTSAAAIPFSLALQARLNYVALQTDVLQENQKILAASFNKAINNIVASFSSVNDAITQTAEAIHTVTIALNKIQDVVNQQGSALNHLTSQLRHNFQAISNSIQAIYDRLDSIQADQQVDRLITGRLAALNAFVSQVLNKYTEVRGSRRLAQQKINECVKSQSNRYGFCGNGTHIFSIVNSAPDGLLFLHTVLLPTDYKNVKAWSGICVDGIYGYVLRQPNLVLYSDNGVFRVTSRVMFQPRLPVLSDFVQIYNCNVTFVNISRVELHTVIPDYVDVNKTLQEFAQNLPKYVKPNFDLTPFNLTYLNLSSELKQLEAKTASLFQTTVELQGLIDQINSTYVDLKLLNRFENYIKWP

T2: HCoV-229E spike protein (Sino Biological 40605-V08B) (HCoV-229E, UniProt P15423 16-1115)
T2 sequence: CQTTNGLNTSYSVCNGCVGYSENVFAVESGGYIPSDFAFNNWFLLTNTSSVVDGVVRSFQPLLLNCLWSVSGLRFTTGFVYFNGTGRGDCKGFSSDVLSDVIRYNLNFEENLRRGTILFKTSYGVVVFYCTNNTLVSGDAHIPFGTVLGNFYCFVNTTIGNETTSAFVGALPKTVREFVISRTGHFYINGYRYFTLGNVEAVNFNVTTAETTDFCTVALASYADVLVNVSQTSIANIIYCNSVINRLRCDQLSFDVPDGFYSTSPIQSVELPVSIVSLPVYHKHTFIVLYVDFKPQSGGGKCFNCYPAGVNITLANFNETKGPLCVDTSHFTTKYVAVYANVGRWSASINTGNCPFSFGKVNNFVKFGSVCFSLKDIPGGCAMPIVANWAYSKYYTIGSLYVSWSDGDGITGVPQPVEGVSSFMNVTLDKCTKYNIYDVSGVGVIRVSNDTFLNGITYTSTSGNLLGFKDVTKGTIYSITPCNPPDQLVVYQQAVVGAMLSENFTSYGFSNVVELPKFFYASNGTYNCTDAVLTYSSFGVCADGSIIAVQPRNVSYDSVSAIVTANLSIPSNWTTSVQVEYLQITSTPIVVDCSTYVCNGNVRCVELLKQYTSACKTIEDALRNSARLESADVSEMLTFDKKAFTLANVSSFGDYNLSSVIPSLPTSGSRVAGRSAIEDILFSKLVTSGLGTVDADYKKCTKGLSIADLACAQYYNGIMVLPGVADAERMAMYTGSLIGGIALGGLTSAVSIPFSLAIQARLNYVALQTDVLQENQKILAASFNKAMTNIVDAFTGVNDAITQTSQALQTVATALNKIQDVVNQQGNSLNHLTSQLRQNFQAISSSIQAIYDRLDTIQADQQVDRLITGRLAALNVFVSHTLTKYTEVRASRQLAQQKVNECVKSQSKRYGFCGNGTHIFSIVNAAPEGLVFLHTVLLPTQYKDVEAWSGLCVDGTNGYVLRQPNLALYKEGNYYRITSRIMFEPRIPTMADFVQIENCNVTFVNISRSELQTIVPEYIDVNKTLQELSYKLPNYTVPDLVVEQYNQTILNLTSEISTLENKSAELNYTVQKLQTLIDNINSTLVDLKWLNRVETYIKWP

T3: MERS-CoV spike protein (MERS-CoV, UniProt K9N5Q8 18-1291)
T3 sequence: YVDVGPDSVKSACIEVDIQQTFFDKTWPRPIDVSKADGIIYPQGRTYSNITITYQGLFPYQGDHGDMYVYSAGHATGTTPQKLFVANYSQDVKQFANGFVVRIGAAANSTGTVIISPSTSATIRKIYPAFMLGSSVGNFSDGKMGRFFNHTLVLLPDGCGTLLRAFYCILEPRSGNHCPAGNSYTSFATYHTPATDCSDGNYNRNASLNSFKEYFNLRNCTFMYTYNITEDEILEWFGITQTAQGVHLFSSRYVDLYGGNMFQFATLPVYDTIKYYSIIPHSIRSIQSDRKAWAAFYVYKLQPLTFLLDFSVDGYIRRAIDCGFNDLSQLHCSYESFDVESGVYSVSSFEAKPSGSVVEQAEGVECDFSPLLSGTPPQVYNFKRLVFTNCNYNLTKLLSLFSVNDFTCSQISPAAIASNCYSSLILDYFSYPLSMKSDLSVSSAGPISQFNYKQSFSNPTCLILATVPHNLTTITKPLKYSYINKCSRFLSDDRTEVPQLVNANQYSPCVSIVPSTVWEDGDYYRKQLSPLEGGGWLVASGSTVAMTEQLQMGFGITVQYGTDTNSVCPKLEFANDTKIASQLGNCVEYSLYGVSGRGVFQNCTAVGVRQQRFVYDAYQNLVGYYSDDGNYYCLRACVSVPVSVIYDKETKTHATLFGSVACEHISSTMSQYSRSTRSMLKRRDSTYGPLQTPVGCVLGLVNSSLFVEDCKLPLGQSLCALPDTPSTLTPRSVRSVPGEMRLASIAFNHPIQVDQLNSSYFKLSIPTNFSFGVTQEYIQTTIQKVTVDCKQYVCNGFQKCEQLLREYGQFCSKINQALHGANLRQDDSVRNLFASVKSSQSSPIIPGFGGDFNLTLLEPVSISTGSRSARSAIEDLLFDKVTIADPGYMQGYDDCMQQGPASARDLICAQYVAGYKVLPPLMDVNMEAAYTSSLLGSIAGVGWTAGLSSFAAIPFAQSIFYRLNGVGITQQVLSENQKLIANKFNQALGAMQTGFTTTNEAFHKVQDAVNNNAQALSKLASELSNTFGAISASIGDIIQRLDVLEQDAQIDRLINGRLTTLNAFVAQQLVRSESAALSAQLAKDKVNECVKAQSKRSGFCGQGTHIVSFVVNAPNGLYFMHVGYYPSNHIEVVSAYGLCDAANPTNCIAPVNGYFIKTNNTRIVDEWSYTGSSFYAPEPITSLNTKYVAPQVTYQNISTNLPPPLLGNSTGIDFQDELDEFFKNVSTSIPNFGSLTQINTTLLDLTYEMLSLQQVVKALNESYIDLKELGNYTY

B1: COV89-03 (antibody, V domains shown)
VH: QVQLQESGPGLVKPSETLSLTCTVSGGSIRSNYWSWIRQPPGKRLEWLGYIYYSGSTNYNPSLKSRVTISVDTSKNQFSLNLSSVTAADTAVYYCVREMPYNWIDPWGQGTLVTVSS
VL: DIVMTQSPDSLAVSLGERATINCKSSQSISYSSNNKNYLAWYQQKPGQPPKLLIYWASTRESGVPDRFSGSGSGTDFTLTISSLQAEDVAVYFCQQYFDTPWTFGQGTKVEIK
B2: COV77-02 (antibody, V domains shown)
VH: QVQLVESGGGVVQPGRSLRLSCAASGFTFSDHGMHWVRQAPGKGLQWVALIWYDGSNMFYRDSVKGRFTISRDNSKNTVYLEMSSLRAEDTALYYCARGTDVWSGLSLDALDVWGQGTMVTVSP
VL: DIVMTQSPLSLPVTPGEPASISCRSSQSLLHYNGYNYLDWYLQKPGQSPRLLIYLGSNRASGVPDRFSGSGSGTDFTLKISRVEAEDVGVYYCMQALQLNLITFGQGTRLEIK
B3: COV49-42 (antibody, V domains shown)
VH: QVHLVQSGAEVKNPGVSVKVSCKASGYTFTTSGITWVRQAPGQGLEWMGWISTYNGNTETAQTFQGRVTMTTDTSTSTAYMELRRLRSDDTAVYYCARVQSVATSSNYFFDYWGQGTRVTVSS
VL: DIQMTQSPSSLSASVGDRVTITCRASQTIDRFLNWYQQKPGKAPKLLIYAASRLQSGVPSRFSGSGSGTTYTLTISSLQPEDFATYFCQQSYSDPRALTFGGGTKVEIK
B4: COV93-04 (antibody, V domains shown)
VH: QLQLQESGSGLVKPSQTLSLTCVVSGDSISSGGYSWSWIRQQPGKALEWIGYIYHSGVTNYNPSLKSRVTISVDRSTNQFSLKLSSVTAADTAVYYCARDGKYNWFDPWGQGILVTVSS
VL: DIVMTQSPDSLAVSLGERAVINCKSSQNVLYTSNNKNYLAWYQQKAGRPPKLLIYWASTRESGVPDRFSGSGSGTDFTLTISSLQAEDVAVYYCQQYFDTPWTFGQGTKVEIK
B5: COV93-61 (antibody, V domains shown)
VH: EVQLVQSGAEVKKPGESLKISCKGSGYSFTTFWIGWVRQMPGKGLEWVGVIYPDDSDTRYSPSFQGQVTMSADKSINTAYLQWSSLKASDTAVYYCARRNCDAALCYLGTYDYWGQGTVVTVSS
VL: QSALTQPPSASGSPGQSVTISCTGTISDVGRYDFVSWYQHHPGKAPKLIIYEVTKRPSGVPDRFSGSKSGNTASLTVSGLQAEDEADYYCNSYAGHNNFVIFGGGTKLTVL
B6: COV57-01 (antibody, V domains shown)
VH: QVQLVESGGGVVQPGRSLRLSCTVSGFTFNNYGMHWVRQAPGKGLEWLAVISYEGSKKFYADSLEGRFSISRDSSKNTLYLQMNSLTIEDTAVYFCAKRNSIFWFGEGRKDAFDVWGQGTRVIVSS
VL: DIQLTQSPSSLSASVGDRVTITCRASQTVDNYLNWYQQLPGKAPKLLIHTASTLQSGVPSRFSATSSGTDFTLTISGLQPDDSATYFCQQSYSVPLTFGGGTKVEIKV

Each binder was assayed against SARS-CoV-2 spike receptor binding domain (RBD), recombinant (SARS-CoV-2, UniProt P0DTC2 319-541) (assay: bead flow cytometry, AUC minus CD4).
B1: no binding (tested: 200 µg/mL).
B2: no binding (tested: 200 µg/mL).
B3: no binding (tested: 200 µg/mL).
B4: no binding (tested: 200 µg/mL).
B5: no binding (tested: 200 µg/mL).

The binders below were run against SARS-CoV-2 spike N-terminal domain (NTD), recombinant (SARS-CoV-2, UniProt P0DTC2 14-305) (assay: bead flow cytometry, AUC minus CD4).
B1: no binding (tested: 200 µg/mL).
B2: no binding (tested: 200 µg/mL).
B3: no binding (tested: 200 µg/mL).
B4: no binding (tested: 200 µg/mL).
B5: no binding (tested: 200 µg/mL).

Each binder was assayed against T4, SARS-CoV-2 spike S2 subunit, recombinant (SARS-CoV-2, UniProt P0DTC2 686-1213) (assay: bead flow cytometry, AUC minus CD4).
T4 construct: domain: S2 subunit
B2: no binding (tested: 200 µg/mL).
B3: no binding (tested: 200 µg/mL).
B4: no binding (tested: 200 µg/mL).

What follows are binders tested against T1, HCoV-NL63 spike protein (Sino …) (assay: bead flow cytometry, AUC minus CD4).
B6: no binding (tested: 200 µg/mL).
B1: no binding (tested: 200 µg/mL).
B2: no binding (tested: 200 µg/mL).
B3: no binding (tested: 200 µg/mL).
B4: no binding (tested: 200 µg/mL).
B5: no binding (tested: 200 µg/mL).

What follows are binders tested against T2, HCoV-229E spike protein (Sino …) (assay: bead flow cytometry, AUC minus CD4).
B1: no binding (tested: 200 µg/mL).
B2: no binding (tested: 200 µg/mL).
B3: no binding (tested: 200 µg/mL).
B4: no binding (tested: 200 µg/mL).
B5: no binding (tested: 200 µg/mL).

What follows are binders tested against T3, MERS-CoV spike protein (assay: bead flow cytometry, AUC minus CD4).
B6: no binding (tested: 200 µg/mL).
